Experimental data: publication PMC314469, “Protein Interaction Networks by Proteome Peptide Scanning” (PLoS Biology, 2004)

T1: Boi1 SH3 (BOI1_YEAST), P38041
T1 chain: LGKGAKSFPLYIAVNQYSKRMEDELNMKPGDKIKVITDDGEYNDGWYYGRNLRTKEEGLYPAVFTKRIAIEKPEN

T2: Boi2 SH3 (BOI2_YEAST), P39969
T2 chain: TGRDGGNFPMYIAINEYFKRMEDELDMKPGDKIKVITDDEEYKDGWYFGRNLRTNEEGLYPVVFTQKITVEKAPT

T3: Myo5 SH3 (MYO5_YEAST), Q04439
T3 chain: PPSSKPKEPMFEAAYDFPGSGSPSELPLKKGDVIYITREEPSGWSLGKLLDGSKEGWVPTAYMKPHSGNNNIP

T4: Rvs167 SH3 (RV167_YEAST), P39743
T4 chain: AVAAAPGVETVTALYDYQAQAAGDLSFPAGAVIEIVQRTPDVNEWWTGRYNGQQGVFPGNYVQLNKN

T5: Yfr024 SH3 (LSB3_YEAST), P43603
T5 chain: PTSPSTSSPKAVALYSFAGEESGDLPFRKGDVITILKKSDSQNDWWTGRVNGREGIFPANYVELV

T6: Yhr016c SH3 (YSC84_YEAST), P32793
T6 chain: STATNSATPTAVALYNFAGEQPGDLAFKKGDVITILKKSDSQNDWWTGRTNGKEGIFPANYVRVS


Legend:
Assay in all cases: SPOT array
[1] = biological target: T1, Boi1 SH3 (BOI1_YEAST), P38041
[2] = biological target: T2, Boi2 SH3 (BOI2_YEAST), P39969
[3] = biological target: T3, Myo5 SH3 (MYO5_YEAST), Q04439
[4] = biological target: T4, Rvs167 SH3 (RV167_YEAST), P39743
[5] = biological target: Sho1 SH3 (SHO1_YEAST), P40073
Chain of Sho1 SH3 (SHO1_YEAST), P40073 (P40073 295-366): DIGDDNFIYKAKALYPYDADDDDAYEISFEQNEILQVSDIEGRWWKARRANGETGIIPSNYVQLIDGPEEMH

[6] = biological target: T5, Yfr024 SH3 (LSB3_YEAST), P43603
[7] = biological target: T6, Yhr016c SH3 (YSC84_YEAST), P32793

Binder	normalised SPOT signal, Boehringer light units (BLU); mean over the file's lines of this peptide [1]	normalised SPOT signal, Boehringer light units (BLU); mean over the file's lines of this peptide [2]	normalised SPOT signal, Boehringer light units (BLU); mean over the file's lines of this peptide [3]	normalised SPOT signal, Boehringer light units (BLU); mean over the file's lines of this peptide [4]	normalised SPOT signal, Boehringer light units (BLU); mean over the file's lines of this peptide [5]	normalised SPOT signal, Boehringer light units (BLU); mean over the file's lines of this peptide [6]	normalised SPOT signal, Boehringer light units (BLU); mean over the file's lines of this peptide [7]
QFALKNTPITPGSS [YGR061C 462-475]	142	0	111	79.8	36.4	66.9	33.6
PSAMKLVPSIPPAT [YBR154C 118-131]	89.4	21.6	561	45.4	42.6	251	63.3
QELPRAIPVMPFVD [YJL020C 471-484]	-0	22.2	118	57	11.6	700	118
PSRSKSNPILPIMR [YLR319C 684-697]	196	25.1	523	246	98.4	1260	70.1
PSHYRNIPYNPATF [YBR194W 90-103]	188	8.5	175	27.8	65.2	100	11.3
PVPVRMQPQPPQPM [YBR108W 383-396]	93.8	85.6	188	70.5	71.7	1650	145
PVRSRVLPATPRQI [YKL086W 103-116]	2030	35.9	1470	10400	28200	15900	1380
PSSKKNKPNPPPGS [YJL056C 176-189]	571	0.8	107	40.5	72.1	49.2	28
PTVQKFSPHPPTTL [YER144C 362-375]	58	14.5	213	20.8	44.4	10.2	16

Second part, the binder after the results:

normalised SPOT signal, Boehringer light units (BLU); mean over the file's lines of this peptide [1]	normalised SPOT signal, Boehringer light units (BLU); mean over the file's lines of this peptide [2]	normalised SPOT signal, Boehringer light units (BLU); mean over the file's lines of this peptide [3]	normalised SPOT signal, Boehringer light units (BLU); mean over the file's lines of this peptide [4]	normalised SPOT signal, Boehringer light units (BLU); mean over the file's lines of this peptide [5]	normalised SPOT signal, Boehringer light units (BLU); mean over the file's lines of this peptide [6]	normalised SPOT signal, Boehringer light units (BLU); mean over the file's lines of this peptide [7]	Binder
177	991	382	920	1590	1150	432	PYMYKYLPRFPNLK [YPL137C 764-777]
84.3	17.2	413	49.7	57.4	157	37.5	PRSKKKKPAPPTLL [YMR039C 165-178]
168	27.4	191	93.3	37.8	0	11.2	PTANKYAPVSPTVQ [YPL085W 797-810]
102	11.1	607	30.1	63.2	49.6	37.1	QATGRRGPAPPPPP [YOR181W 378-391]
3740	4.1	186	53800	31600	36200	50100	PQQNRPLPQLPNRN [YOR181W 307-320]
350	743	3260	3750	121	15700	6220	PQTMRQAPKRPDAD [YNL298W 493-506]
93.5	40.8	289	52	79.1	65.5	8.5	PSSHKRKPVIPWDA [YNL295W 201-214]
